Reference: patent US20070060521A1 (UNIVERSITY OF SOUTH FLORIDA A PUBLIC CORPORATION OF THE …, published 2007)
Non-standard residues stand in square brackets, D forms with d. No end group written: not given here. pY = N[C@@H](Cc1ccc(OP(=O)(O)O)cc1)C(=O)O

What follows are binders tested against STAT3 with DNA-binding activity in vitro (activated STAT3 dimers) (assay: cell-based or functional assay).

Compared with P[pY]LKTK [PY*LKTK (SEQ ID NO:20)], Ac-[pY]-Leu-Lys [Ac-Y*LK (SEQ ID NO:31)] is 1.5-fold higher in “IC50, Disruption of STAT3 DNA-binding Activity” value (from here on “IC50, Disruption”): 280 µM for the first, 421 µM for the second.

P[pY]LA [PY*LA (SEQ ID NO:35)] and A[pY]LK [AY*LK (SEQ ID NO:30)] are within 1.5-fold of each other in “IC50, Disruption” value: 326 µM for the first, 365 µM for the second.

Ac-P[pY]LKTK [Ac-PY*LKTK (SEQ ID NO:32)] and Ac-P[pY]LK [Ac-PY*LK (SEQ ID NO:34)] are within 1.5-fold of each other in “IC50, Disruption” value: 212 µM for the first, 156 µM for the second.
